What was measured:
Escherichia coli MG1655 = assay: Plate-based growth inhibition assay; assay type: cell-based; conditions: overnight incubation, 384 well plate, two replicates; peptide purified from CFPS
Protocol: Antimicrobial peptide activity was tested with a plate-based growth inhibition study. A 5 ml culture of Escherichia coli MG1655 was grown overnight on Luria Broth (LB) from a glycerol stock. On the day of the assay, the overnight culture was diluted to an OD of 0.08 in LB and then grown to mid log phase (OD ˜0.5). The mid log phase cells were diluted to […] (assuming 1 OD=8×10^8 cells/ml) into LB with 0.005% Antifoam 204 (Sigma A6426) and 1 mg/ml BSA (Sigma-Aldrich A2153-100G). 5 μl of these cells were added to 10 μl of purified antimicrobial peptide in a UV-sterilized 384 well, clear bottom plate (Greiner Bio-One 781096). Positive controls included 10 μl of the wash buffer the hormones were dissolved in and 10 μl of a no DNA control where no DNA template was added to the CFPS reactions, but the sample was treated exactly like the other antimicrobial peptide samples. Negative controls included a final kanamycin concentration of 50 μg/ml and adding 10 μl of the LB with 0.005% Antifoam 204 and 1 mg/ml BSA without E. coli cells. The plate was sealed with a microseal B adhesive (Bio-Rad MSB1001) and incubated in a plate reader with continuous shaking for 18 hr at 37° C. and absorbance measurements at 600 nm every 15 min.

[1] = target: T1, extracellular domain of PTH receptor (Homo sapiens, UniProt Q03431); assay: AlphaLISA cross-titration of PTH and PTH receptor; assay type: binding; conditions: sFLAG-tagged PTH, anti-FLAG donor beads; His-tagged PTH receptor, nickel chelate acceptor beads
T1 construct: purchased Abcam ab182670
T1 sequence (Q03431 27-186 limits assumed): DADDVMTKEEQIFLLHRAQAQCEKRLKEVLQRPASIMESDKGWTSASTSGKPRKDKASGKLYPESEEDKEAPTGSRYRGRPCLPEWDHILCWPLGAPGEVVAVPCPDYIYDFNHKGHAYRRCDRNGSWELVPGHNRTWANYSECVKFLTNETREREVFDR

[2] = target: T2, parathyroid hormone receptor (Homo sapiens, UniProt Q03431); assay: Biolayer interferometry (BLI) of PTH binding to its receptor; conditions: undiluted CFPS PTH or 67 μg/ml commercial PTH; with and without receptor on tip
T2 construct: purchased R&D systems 5709-PR-50
T2 sequence (Q03431 27-186 limits assumed): T1 sequence (Q03431 27-186 limits assumed)
Source text: In fact, the entire sequences except for the two N-terminal and C-terminal amino acids were confirmed for both GLP-1 mutant and GLP-1 in these experiments. The peptide hormones are cleaved precisely at the C-terminus of SUMO to give tagless hormones as expected. […] There was low signal relative to GH, however, the binding signal is still more than 3 standard deviations above the background noise. Unfortunately, this binding was unable to be confirmed with BLI, likely because the hormone is too small (3.5 kDa) to generate enough of a wavelength shift to be detected by the instrument (FIG. 9f). […] Full-length parathyroid hormone was detected in the deconvoluted LC-MS spectra with an observed mass of 9424.66 Da, which matches the theoretical mass of 9424.73 Da with an error of 7.4 ppm (FIG. 10a). PTH was also detected by two orthogonal antibodies in a commercial sandwich ELISA assay (Biomatik EKF58372). The concentration was determined to be 24±11 μg/ml with 4 dilutions of a single sample (FIG. 10a). This value is approximately 80% of that detected by BCA and densitometry. […] Black lines represent a commercially purchased positive control PTH (OriGene SA6052) where there is no receptor immobilized on the lightly shaded line and receptor immobilized with the dark line. […]

Substance	Growth of E. coli MG1655 (Escherichia coli MG1655)	PTH interaction with extracellular domain of its receptor (AlphaLISA) [1]	PTH binding to extracellular domain of its receptor (BLI) [2]
Melittin	inhibiting growth of the bacteria	–	–
Parathyroid Hormone [PTH]	–	very low signal that has a typical binding pattern	unable to detect PTH binding
positive control PTH: commercially purchased positive control PTH (OriGene SA6052) [reference compound]	–	–	high background binding
